Data published in patent publication US20170298096A1 (CANIMGUIDE THERAPEUTICS, published 2017).

T1: His-tagged P3028 peptide (PGE73) (human)
T1 construct: also called His-tag-P3028; not shown: His-tag
T1 peptide: VFDEFKPLVEEPQNLIK

T2: His-tagged P3028 peptide (PGE73) (human)
T2 construct: albumin-derived peptide, in solution at 0.5 ug/mL; not shown: His-tag
T2 peptide: VFDEFKPLVEEPQNLIK


Assays:
[1] = target: Artificial Cell Surface (ACS): biotinylated cell surface proteins from mononuclear cells coupled to streptavidin-sepharose; assay: adsorption on ACS column, MALDI-TOF MS
[2] = target: T1, His-tagged P3028 peptide (PGE73); assay: PEPSCAN ELISA; peptide on card, His-tagged P3028 in solution;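 further: bound protein detected by peroxidase colour with ABTS substrate, imaged on the peptide card by CCD camera at 405 nm, rampo units being raw OD405 readings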
Method: (§1) After washing, the peroxidase substrate 2,2′-azine-di-3-ethylbenzthiazoline sulfonate (ABTS) and 2 μL of 3% H2O2 were added. The binding capacity of the mAb was measured as a color development at 405 nm (optical density, OD405). The color development was quantified with a charge-coupled device (CCD)—camera and an image processing system.
(§2) The OD405-values obtained by a CCD-camera was considered as raw data values (“rampo values,” “rampo units,” or “rampo scores”). […] First the CCD-camera made a picture of the card before peroxidase coloring and then again a picture after the peroxidase coloring. […] These values were copied into an excel file and labeled as a raw data file. One follow-up manipulation was allowed. Sometimes a well can contain an air-bubble resulting in a false-positive value. If manual inspection of the cards detect an air-bubble the value are set to 0 for that well.

[3] = target: T2, His-tagged P3028 peptide (PGE73); assay: PEPSCAN ELISA, peptide on card
Method: as §1, §2

| Binder | RAMPO Score [2] | other results |
| --- | --- | --- |
| VFDEFKPLVEEPQNLIK [trypsin-generated albumin fragment SEQ ID NO: 196 …] | – | Percent Absorbed [1]: 60% |
| KKLDTFFVKLSDFTER (P28R variant on PEPSCAN card) [SEQ ID NO: 580] | 89 rampo units | – |
| KKLDTFFVKLSEFTER (P28R variant on PEPSCAN card) [SEQ ID NO: 581] | 82 rampo units | – |
| KVPQVSTPTLVEVSR [trypsin-generated albumin fragment SEQ ID NO: 195 …] | – | Percent Absorbed [1]: 64% |
| KKLDTFFVYLSLFTER (P28R variant on PEPSCAN card) [SEQ ID NO: 552] | 198 rampo units | – |
| KKLDTFFVGLSLFTER (P28R variant on PEPSCAN card) [SEQ ID NO: 97] | 188 rampo units | – |
| KKLDTFFVPLSLFTER (P28R variant on PEPSCAN card) [SEQ ID NO: 534] | 233 rampo units | – |
| KKLDTFFVILSLFTER (P28R variant on PEPSCAN card) [SEQ ID NO: 555] | 190 rampo units | – |
| KKLDTFFVDLSLFTER (P28R variant on PEPSCAN card) [SEQ ID NO: 569] | 149 rampo units | – |
| KKLDTFFVFLSLFTER (P28R variant on PEPSCAN card) [SEQ ID NO: 560] | 174 rampo units | – |
| KKLDTFFVGLSLFTER (P28R variant on PEPSCAN card) [SEQ ID NO: 98] | 188 rampo units | – |
| KKLDTFFVCLSLFTER (P28R variant on PEPSCAN card) [SEQ ID NO: 541] | 220 rampo units | – |
| KKLDTFFVALSLFTER (P28R variant on PEPSCAN card) [SEQ ID NO: 554] | 191 rampo units | – |
| KKLDTFFVLLSLFTER (P28R variant on PEPSCAN card) [SEQ ID NO: 562] | 166 rampo units | – |
| KKLDTFFVKLSLFSER [SEQ ID NO: 384 KKLDTFFVKLSLFSER] | – | RAMPO Score [3]: 369 |
| KKLDTFFVKLSLFTET [SEQ ID NO: 392 KKLDTFFVKLSLFTET] | – | RAMPO Score [3]: 292 |
| KKLDTFFVKLSLFTEN [SEQ ID NO: 390 KKLDTFFVKLSLFTEN] | – | RAMPO Score [3]: 311 |
| KKLDTFFVKLSLFTEK [SEQ ID NO: 389 KKLDTFFVKLSLFTEK] | – | RAMPO Score [3]: 291 |
| KKLDTFFVKLSLFTEY [SEQ ID NO: 393 KKLDTFFVKLSLFTEY] | – | RAMPO Score [3]: 311 |
| KKLDTFFVKLSLFTDR [SEQ ID NO: 387 KKLDTFFVKLSLFTDR] | – | RAMPO Score [3]: 404 |
| KKLDTFFVKLSLFWER [SEQ ID NO: 386 KKLDTFFVKLSLFWER] | – | RAMPO Score [3]: 374 |
| KKLDTFFVKLSLFTEF [SEQ ID NO: 388 KKLDTFFVKLSLFTEF] | – | RAMPO Score [3]: 297 |
| KKLDTFFVKLSLFVER [SEQ ID NO: 385 KKLDTFFVKLSLFVER] | – | RAMPO Score [3]: 380 |
| KKLDTFKVKLSLFTER (P28R variant on PEPSCAN card) [SEQ ID NO: 535] | 232 rampo units | – |

| Binder | RAMPO Score [2] | other results |
| --- | --- | --- |
| VPQVSTPTLVEVSR [trypsin-generated albumin fragment SEQ ID NO: 197 …] | – | Percent Absorbed [1]: 59% |
| KKLDTFFVKLSLKTER (P28R variant on PEPSCAN card) [SEQ ID NO: 542] | 220 rampo units | – |
| KKLDTFFVKLSLDTER (P28R variant on PEPSCAN card) [SEQ ID NO: 575] | 112 rampo units | – |
| KKLDTFFVKLSLETER (P28R variant on PEPSCAN card) [SEQ ID NO: 579] | 98 rampo units | – |
| KKLDTFFVKLSLFTEP (P28R variant on PEPSCAN card) [SEQ ID NO: 533] | 234 rampo units | – |
| KKLDTFFVKLSLFTEL (P28R variant on PEPSCAN card) [SEQ ID NO: 544] | 217 rampo units | – |
| KKLDTFFVKLSLFTEE (P28R variant on PEPSCAN card) [SEQ ID NO: 577] | 107 rampo units | – |
| KKLDTFFVKLSLFTES (P28R variant on PEPSCAN card) [SEQ ID NO: 557] | 184 rampo units | – |
| KKLDTFFVKLSLFTED (P28R variant on PEPSCAN card) [SEQ ID NO: 572] | 133 rampo units | – |
| KKLDTFFVKLSLFTEQ (P28R variant on PEPSCAN card) [SEQ ID NO: 573] | 133 rampo units | – |
| KKLDTFFVKLSLFTEC (P28R variant on PEPSCAN card) [SEQ ID NO: 559] | 175 rampo units | – |
| KKLDTFFVKLSLFTEA (P28R variant on PEPSCAN card) [SEQ ID NO: 538] | 226 rampo units | – |
| KKLDTFFVKLSLFTEI (P28R variant on PEPSCAN card) [SEQ ID NO: 558] | 176 rampo units | – |
| KKLDTFFVKLSLFTEW (P28R variant on PEPSCAN card) [SEQ ID NO: 551] | 202 rampo units | – |
| KKLDTFFVKLSLFTEG (P28R variant on PEPSCAN card) [SEQ ID NO: 543] | 218 rampo units | – |
| LKECCEKPLLEK [trypsin-generated albumin fragment SEQ ID NO: 201 …] | – | Percent Absorbed [1]: 36% |
| KKLDTFFVKLSLFDER (P28R variant on PEPSCAN card) [SEQ ID NO: 567] | 159 rampo units | – |
| KKLDTFFVKLSLFEER (P28R variant on PEPSCAN card) [SEQ ID NO: 576] | 110 rampo units | – |
| KKLDTFFVKDSLFTER (P28R variant on PEPSCAN card) [SEQ ID NO: 578] | 102 rampo units | – |
| KKLDTFFVKESLFTER (P28R variant on PEPSCAN card) [SEQ ID NO: 582] | 81 rampo units | – |
| SLHTLFGDK [trypsin-generated albumin fragment SEQ ID NO: 200 …] | – | Percent Absorbed [1]: 36% |
| KKLDTFFWKLSLFTER (P28R variant on PEPSCAN card) [SEQ ID NO: 537] | 228 rampo units | – |
| KKLDTFFYKLSLFTER (P28R variant on PEPSCAN card) [SEQ ID NO: 549] | 211 rampo units | – |
| KKLDTFFSKLSLFTER (P28R variant on PEPSCAN card) [SEQ ID NO: 545] | 216 rampo units | – |

| Binder | RAMPO Score [2] | other results |
| --- | --- | --- |
| KKLDTFFEKLSLFTER (P28R variant on PEPSCAN card) [SEQ ID NO: 570] | 139 rampo units | – |
| KKLDTFFNKLSLFTER (P28R variant on PEPSCAN card) [SEQ ID NO: 550] | 203 rampo units | – |
| KKLDTFFHKLSLFTER (P28R variant on PEPSCAN card) [SEQ ID NO: 547] | 213 rampo units | – |
| KKLDTFFDKLSLFTER (P28R variant on PEPSCAN card) [SEQ ID NO: 574] | 122 rampo units | – |
| KKLDTFFMKLSLFTER (P28R variant on PEPSCAN card) [SEQ ID NO: 540] | 221 rampo units | – |
| KKLDTFFVKLLLFTER (P28R variant on PEPSCAN card) [SEQ ID NO: 548] | 213 rampo units | – |
| KKLDTEFVKLSLFTER (P28R variant on PEPSCAN card) [SEQ ID NO: 536] | 229 rampo units | – |
| KKLDTDFVKLSLFTER (P28R variant on PEPSCAN card) [SEQ ID NO: 553] | 193 rampo units | – |
| KKLDTFFVKLSLFTFR (P28R variant on PEPSCAN card) [SEQ ID NO: 571] | 137 rampo units | – |
| KKLDTFFVKLSLFTGR (P28R variant on PEPSCAN card) [SEQ ID NO: 101] | 233 rampo units | – |
| KKLDTFFVKLSLFTWR (P28R variant on PEPSCAN card) [SEQ ID NO: 539] | 226 rampo units | – |
| KKLDTFFVKLSLFTCR (P28R variant on PEPSCAN card) [SEQ ID NO: 556] | 185 rampo units | – |
| KKLDTFFVKLSLFTVR (P28R variant on PEPSCAN card) [SEQ ID NO: 565] | 163 rampo units | – |
| KKLDTFFVKLSLFTIR (P28R variant on PEPSCAN card) [SEQ ID NO: 564] | 163 rampo units | – |
| KKLDTFFVKLSLFTSR (P28R variant on PEPSCAN card) [SEQ ID NO: 563] | 165 rampo units | – |
| KKLDTFFVKLSLFTTR (P28R variant on PEPSCAN card) [SEQ ID NO: 568] | 152 rampo units | – |
| KKLDTFFVKLSLFTNR (P28R variant on PEPSCAN card) [SEQ ID NO: 566] | 161 rampo units | – |
| KKLDTFFVKLSLFTAR (P28R variant on PEPSCAN card) [SEQ ID NO: 561] | 174 rampo units | – |
| RPCFSALEVDETYVPK [trypsin-generated albumin fragment SEQ ID NO: 198 …] | – | Percent Absorbed [1]: 42% |
| FQNALLVR [trypsin-generated albumin fragment SEQ ID NO: 199 FQNALLVR] | – | Percent Absorbed [1]: 41% |
| KYLYEIAR [trypsin-generated albumin fragment SEQ ID NO: 194 KYLYEIAR] | – | Percent Absorbed [1]: 71% |
| CKLDTFFVKLSLFTER (P28R variant on PEPSCAN card) [SEQ ID NO: 546] | 215 rampo units | – |
